# From publication PMC9680708
# Tests used:
# Assay in all cases: other fluorescence titration
# [1] = molecular target: FlAsH-labeled wild-type collybistin (CB) FRET sensor F1DA (rat)
# [2] = molecular target: FlAsH-labeled collybistin FRET sensor F28DA (rat)
# [3] = molecular target: FlAsH-labeled single-mutant (E262A) open-state collybistin FRET sensor F1smDA (rat)
# [4] = molecular target: FlAsH-labeled collybistin FRET sensor F99DA (rat)
# [5] = molecular target: FlAsH-labeled double-mutant (W24A/E262A) open-state collybistin FRET sensor F1dmDA (rat)
# [6] = molecular target: FlAsH-labeled collybistin FRET sensor F73DA (rat)
Substance,species-weighted average fluorescence lifetime of CFP in the sensor with ligand [1] [ns],species-weighted average fluorescence lifetime of CFP in the sensor with ligand [2] [ns],Kd [3] [µM],species-weighted average fluorescence lifetime of CFP in the sensor with ligand [3] [ns],species-weighted average fluorescence lifetime of CFP in the sensor with ligand [4] [ns],Kd [5] [µM],species-weighted average fluorescence lifetime of CFP in the sensor with ligand [5] [ns],species-weighted average fluorescence lifetime of CFP in the sensor with ligand [6] [ns],Kd [1] [µM]
intracellular cytosolic domain of neuroligin 2 (NL2icd) (from UniProt Q62888 700-836) (domain or fragment),1.37,,,,,,,,
full-length gephyrin (GephFL) (from UniProt Q03555 1-768) (natural protein),1.56,1.4,47,0.62,1.2,43,0.64,1.03,4.5
free SH3 domain of collybistin (domain or fragment),1.44,,,,,,,,373
isolated gephyrin E domain (GephE) (domain or fragment),1.36,,,,,,,,6.3
gephyrin linker followed by the E domain (GephLE) (domain or fragment),1.54,,,,,,,,6.4
